{"source": "paper PMC4731831", "about": "“Better than Nature: Nicotinamide Biomimetics That Outperform Natural Coenzymes” (Journal of the American Chemical Society, 2016)", "substrate": "NC(=O)C1=CN([C@@H]2O[C@H](COP(=O)(O)OP(=O)(O)OC[C@H]3O[C@@H](n4cnc5c(N)ncnc54)[C@H](OP(=O)(O)O)[C@@H]3O)[C@@H](O)[C@H]2O)C=CC1", "test": "purified protein", "settings": "reduction of cinnamaldehyde; varied: cofactor"}
{"protein": "NtDBR (Nicotiana tabacum) (protein) MAEEVSNKQVILKNYVTGYPKESDMEIKNVTIKLKVPEGSNDVVVKNLYLSCDPYMRSRMRKIEGSYVESFAPGSPITGYGVAKVLESGDPKFQKGDLVWGMTGWEEYSIITPTQTLFKIHDKDVPLSYYTGILGMPGMTAYAGFHEVCSPKKGETVFVSAASGAVGQLVGQFAKMLGCYVVGSAGSKEKVDLLKSKFGFDEAFNYKEEQDLSAALKRYFPDGIDIYFENVGGKMLDAVLVNMKLYGRIAVCGMISQYNLEQTEGVHNLFCLITKRIRMEGFLVFDYYHLYPKYLEMVIPQIKAGKVVYVEDVAHGLESAPTALVGLFSGRNIGKQVVMVSRE", "values": [{"measurement": "Km", "result": 91, "unit": "µM"}, {"measurement": "kcat", "result": 40, "unit": "min^–1"}]}
